Here are results for six molecules from patent EP4737484A1 (Phil Rivers Technology Co., Ltd, dated 2026).

Assay [1] addresses T1, huIL-1β-His (human, UniProt P01584 117-269). Briefly: ELISA, plate coated with huIL-1β-His, anti-human IgG Fc-HRP. A general note: An ELISA detects its analyte on a solid surface through an enzyme-linked reagent.
Assay [2] concerns the target T1, huIL-1β-His. Briefly: ELISA, plate coated with huIL-1β-His, anti-human IgG Fc-HRP; positive control.
The target of assay [3] is T2, full-length human PD-L1 on huPD-L1-CHO-K cells (human, UniProt Q9NZQ7 19-290).
T2 construct: also called huPD-L1-overexpressing-CHO-K cells; CD3L-PD-L1-CHO
Briefly: flow cytometry on huPD-L1-CHO-K cells, PE anti-human IgG Fc. Background: A flow cytometer gives signals particle by particle.

In assay [4] the target is T3, huPD-L1-His (human, UniProt Q9NZQ7 19-238).
T3 construct: also called human recombinant protein huPD-L1-His; antigen PD-L1
The experiment in a line: ELISA, plate coated with huPD-L1-His, anti-human IgG Fc-HRP.

For a further assay, the target named is T4, huIL-1β-Fc (human).
T4 construct: also called huIL-1β-Fe
Briefly: bridging ELISA: coated huIL-1β-Fc, antibody, then huPD-L1-His, anti-His-HRP.

Assay [5] deals with T3, huPD-L1-His. The description is as above.
Assay [6] has as its target T1, huIL-1β-His. Briefly: bridging ELISA: coated huPD-L1-Fc, antibody, then huIL-1β-His, anti-His-HRP.
The target of another assay is huPD-L1-Fc (human). The assay is described as above.

B1: BsAb17 (bispecific antibody)
heavy: not shown
light: not shown
chain 1: not shown
chain 2: EIVLTQSPDFQSVTPKEKVTITCRASQSIGSSLHWYQQKPDQSPKLLIKYASQSFSGVPSRFSGSGSGTDFTLTINSLEAEDAAAYYCHQSSSLPFTFGPGTKVDIKSSASTKGPSVFPLAPSSKSTSGGTAALGCLVKDYFPEPVTVSWNSGALTSGVHTFPAVLQSSGLYSLSSVVTVPSSSLGTQTYICNVNHKPSNTKVDKKVEPKSC
notes: Atezolizumab heavy (Knob) and light chain; Canakinumab VH-CL-Fc (hole); also called Construct BsAb17
B1: the binding result with huIL-1β-His [1] is “binds”.

B2: BsAb22 (bispecific antibody)
heavy: not shown
light: not shown
chain 1: not shown
chain 2: EIVLTQSPDFQSVTPKEKVTITCRASQSIGSSLHWYQQKPDQSPKLLIKYASQSFSGVPSRFSGSGSGTDFTLTINSLEAEDAAAYYCHQSSSLPFTFGPGTKVDIKSSASTKGPSVFPLAPSSKSTSGGTAALGCLVKDYFPEPVTVSWNSGALTSGVHTFPAVLQSSGLYSLSSVVTVPSSSLGTQTYICNVNHKPSNTKVDKRVEPKSC
notes: Atezolizumab heavy chain (Fc with F405L) and light chain; Canakinumab VH-CL-Fc (K409R); also called Construct BsAb22
For B2, in the assay with huIL-1β-His [1], the binding result is on record as “binds”.

B3: BsAb18 (bispecific antibody)
heavy: not shown
light: not shown
chain 1: not shown
chain 2: QVQLVESGGGVVQPGRSLRLSCAASGFTFSVYGMNWVRQAPGKGLEWVAIIWYDGDNQYYADSVKGRFTISRDNSKNTLYLQMNGLRAEDTAVYYCARDLRTGPFDYWGQGTLVTVSSASVAAPSVFIFPPSDEQLKSGTASVVCLLNNFYPREAKVQWKVDNALQSGNSQESVTEQDSKDSTYSLSSTLTLSKADYEKHKVYACEVTHQGLSSPVTKSFNRGEC
notes: Atezolizumab heavy (Knob) and light chain; Canakinumab VL-IgG1 constant region (hole); also called Construct BsAb18
As for B3, the binding result with huIL-1β-His [1] is “binds”.

B4: Canakinumab (antibody, human IgG1, kappa, V domains shown)
VH: QVQLVESGGGVVQPGRSLRLSCAASGFTFSVYGMNWVRQAPGKGLEWVAIIWYDGDNQYYADSVKGRFTISRDNSKNTLYLQMNGLRAEDTAVYYCARDLRTGPFDYWGQGTLVTVSS
VL: EIVLTQSPDFQSVTPKEKVTITCRASQSIGSSLHWYQQKPDQSPKLLIKYASQSFSGVPSRFSGSGSGTDFTLTINSLEAEDAAAYYCHQSSSLPFTFGPGTKVDIKR
notes: also called positive control Canakinumab
Consider B4, for which, in the assay with huIL-1β-His [2], the binding result is “binds”.

B5: BsAb25 (bispecific antibody)
heavy: not shown
light: EIVLTQSPDFQSVTPKEKVTITCRASQSIGSSLHWYQQKPDQSPKLLIKYASQSFSGVPSRFSGSGSGTDFTLTINSLEAEDAAAYYCHQSSSLPFTFGPGTKVDIKRTVAAPSVFIFPPSDEQLKSGTASVVCLLNNFYPREAKVQWKVDNALQSGNSQESVTEQDSKDSTYSLSSTLTLSKADYEKHKVYACEVTHQGLSSPVTKSFNRGEC
notes: Canakinumab IgG1 heavy chain-(G4S)4-Atezolizumab scFv (VH G44C-(G4S)4-VL Q100C); also called Construct BsAb25
As to B5, the binding result (in assay [3]; with huPD-L1-His [4]; with huIL-1β-His [1]) was “binds” throughout.

B6: BsAb29 (bispecific antibody)
heavy: not shown
light: EIVLTQSPDFQSVTPKEKVTITCRASQSIGSSLHWYQQKPDQSPKLLIKYASQSFSGVPSRFSGSGSGTDFTLTINSLEAEDAAAYYCHQSSSLPFTFGPGTKVDIKRTVAAPSVFIFPPSDEQLKSGTASVVCLLNNFYPREAKVQWKVDNALQSGNSQESVTEQDSKDSTYSLSSTLTLSKADYEKHKVYACEVTHQGLSSPVTKSFNRGEC
notes: also called Construct BsAb29
B6: the binding result (in assay [3]; in the assay with huIL-1β-Fc; in the assay with huPD-L1-His [5]; with huIL-1β-His [6]; in the assay with huPD-L1-Fc) was “binds” each time.
